FireProtDB (doi:10.1073/pnas.0908565107)

B1: Alanine--glyoxylate aminotransferase, P21549 (parent)
chain: MASHKLLVTPPKALLKPLSIPNQLLLGPGPSNLPPRIMAAGGLQMIGSMSKDMYQIMDEIKEGIQYVFQTRNPLTLVISGSGHCALEAALVNVLEPGDSFLVGANGIWGQRAVDIGERIGARVHPMTKDPGGHYTLQEVEEGLAQHKPVLLFLTHGESSTGVLQPLDGFGELCHRYKCLLLVDSVASLGGTPLYMDRQGIDILYSGSQKALNAPPGTSLISFSDKAKKKMYSRKTKPFSFYLDIKWLANFWGCDDQPRMYHHTIPVISLYSLRESLALIAEQGLENSWRQHREAAAYLHGRLQALGLQLFVKDPALRLPTVTTVAVPAGYDWRDIVSYVIDHFDIEIMGGLGPSTGKVLRIGLLGCNATRENVDRVTEALRAALQHCPKKKL

Variants of: B1
Details: Homo sapiens; pH 7.4; Thermal; DSC; Potassium phosphate 100 mM; structure 1H0C; whole UniProt chain shown

Variant | Tm [°C] | change of melting temperature, mutant - wild type (higher = more stable) [°C]
MASHKLLVTPPKALLKPLSIPNQLLLGPGPSNLPPRIMAAVGLQMIGSMSKDMYQIMDEIKEGIQYVFQTRNPLTLVISGSGHCALEAALVNVLEPGDSFLVGANGIWGQRAVDIGERIGARVHPMTKDPGGHYTLQEVEEGLAQHKPVLLFLTHGESSTGVLQPLDGFGELCHRYKCLLLVDSVASLGGTPLYMDRQGIDILYSGSQKALNAPPGTSLISFSDKAKKKMYSRKTKPFSFYLDIKWLANFWGCDDQPRMYHHTIPVISLYSLRESLALIAEQGLENSWRQHREAAAYLHGRLQALGLQLFVKDPALRLPTVTTVAVPAGYDWRDIVSYVIDHFDIEIMGGLGPSTGKVLRIGLLGCNATRENVDRVTEALRAALQHCPKKKL [G41V] | 58.3 | -4.1
